Measurements: patent US20250262242A1 (published 2025)
Residue numbers refer to the chain shown, from its start.

How the values were obtained:
[1] = target: T1, EBV BRLF1 peptide on HLA-A*02:01 (human); test: activation reporter or marker
T1 peptide: YVLDHLIVV

[2] = target: T2, EBV LMP2 (LMP2A) peptide on HLA-A*02:01 (human); test: activation reporter or marker
T2 peptide: MGSLEMVPM

[3] = target: T3, EBV LMP2 peptide on HLA-A*02:01 (human); test: activation reporter or marker
T3 peptide: CLGGLLTMV

[4] = target: T4, EBV BZLF1 peptide on HLA-B*35:01 (human); test: activation reporter or marker
T4 peptide: EPLPQGQLTAY

[5] = target: T5, mutant splice factor-induced (SF3B1mut) splice variant of MAPK8IP2 peptide on HLA-A*02:01 (human); test: killing
T5 peptide: RLPGVLPRA

[6] = target: T6, HERV-K gag protein peptide on HLA-A*02:01 (human); test: killing
T6 peptide: FLQFKTWWI

[7] = target: T5, mutant splice factor-induced (SF3B1mut) …; test: multimer staining

B1: TCR_A0001 (TCR, V domains shown)
Valpha: AQSVSQHNHHVILSEAASLELGCNYSYGGTVNLFWYVQYPGQHLQLLLKYFSGDPLVKGIKGFEAEFIKSKFSFNLRKPSVQWSDTAEYFCAVKDTDKLIFGTGTRLQVFP
Vbeta: not shown
binding result [1]: recognises

B2: TCR_A0002 (TCR, V domains shown)
Valpha: B1 Valpha
Vbeta: DTAVSQTPKYLVTQMGNDKSIKCEQNLGHDTMYWYKQDSKKFLKIMFSYNNKELIINETVPNRFSPKSPDKAHLNLHINSLELGDSAVYFCASSPDFNEQFFGPGTRLTVL
binding result [1]: recognises

B3: TCR_A0003 (TCR, V domains shown)
Valpha: AQSVSQHNHHVILSEAASLELGCNYSYGGTVNLFWYVQYPGQHLQLLLKYFSGDPLVKGIKGFEAEFIKSKFSFNLRKPSVQWSDTAEYFCAGGAAGNKLTFGGGTRVLVKP
Vbeta: EAGVAQSPRYKIIEKRQSVAFWCNPISGHATLYWYQQILGQGPKLLIQFQNNGVVDDSQLPKDRFSAERLKGVDSTLKIQPAKLEDSAVYLCASSSPLGGFAGANVLTFGAGSRLTVL
binding result [1]: recognises

B4: TCR_A0004 (TCR, V domains shown)
Valpha: B1 Valpha
Vbeta: not shown
binding result [1]: recognises

B5: TCR_A0005 (TCR, V domains shown)
Valpha: AQKITQTQPGMFVQEKEAVTLDCTYDTSDQSYGLFWYKQPSSGEMIFLIYQGSYDEQNATEGRYSLNFQKARKSANLVISASQLGDSAMYFCAMREGGNFNKFYFGSGTKLNVKP
Vbeta: SAVISQKPSRDICQRGTSLTIQCQVDSQVTMMFWYRQQPGQSLTLIATANQGSEATYESGFVIDKFPISRPNLTFSTLTVSNMSPEDSSIYLCSVGGTSGTLPANEQFFGPGTRLTVL
binding result [1]: recognises

B6: TCR_A0015 (TCR, V domains shown)
Valpha: AQSVTQLDSQVPVFEEAPVELRCNYSSSVSVYLFWYVQYPNQGLQLLLKYLSGSTLVKGINGFEAEFNKSQTSFHLRKPSVHISDTAEYFCAVSALSYNQGGKLIFGQGTELSVKP
Vbeta: DAGVIQSPRHEVTEMGQEVTLRCKPISGHNSLFWYRQTMMRGLELLIYFNNNVPIDDSGMPEDRFSAKMPNASFSTLKIQPSEPRDSAVYFCASSWTGNEQYFGPGTRLTVT
binding result [2]: recognises

B7: TCR_A0061 (TCR, V domains shown)
Valpha: KQEVTQIPAALSVPEGENLVLNCSFTDSAIYNLQWFRQDPGKGLTSLLLIQSSQREQTSGRLNASLDKSSGRSTLYIAASQPGDSATYLCAVLMDSNYQLIWGAGTKLIIKP
Vbeta: DAGITQSPRYKITETGRQVTLMCHQTWSHSYMFWYRQDLGHGLRLIYYSAAADITDKGEVPDGYVVSRSKTENFPLTLESATRSQTSVYFCASSSDGMNTEAFFGQGTRLTVV
binding result [3]: recognises

B8: TCR_A0064 (TCR, V domains shown)
Valpha: GQQVMQIPQYQHVQEGEDFTTYCNSSTTLSNIQWYKQRPGGHPVFLIQLVKSGEVKKQKRLTFQFGEAKKNSSLHITATQTTDVGTYFCAGAGAGSYQLTFGKGTKLSVIP
Vbeta: KAGVTQTPRYLIKTRGQQVTLSCSPISGHRSVSWYQQTPGQGLQFLFEYFSETQRNKGNFPGRFSGRQFSNSRSEMNVSTLELGDSALYLCASSLEGQASSYEQYFGPGTRLTVT
binding result [3]: recognises

B9: TCR_A0066 (TCR, V domains shown)
Valpha: B8 Valpha
Vbeta: B8 Vbeta with L95A
binding result [3]: recognises

B10: TCR_A0099 (TCR, V domains shown)
Valpha: ILNVEQSPQSLHVQEGDSTNFTCSFPSSNFYALHWYRWETAKSPEALFVMTLNGDEKKKGRISATLNTKEGYSYLYIKGSQPEDSATYLCAVNAGGTSYGKLTFGQGTILTVHP
Vbeta: EAGVAQSPRYKIIEKRQSVAFWCNPISGHATLYWYQQILGQGPKLLIQFQNNGVVDDSQLPKDRFSAERLKGVDSTLKIQPAKLEDSAVYLCASSSDWTANNEQFFGPGTRLTVL
binding result [4]: recognises

B11: TCR_A0130 (TCR, V domains shown)
Valpha: AQTVTQSQPEMSVQEAETVTLSCTYDTSESNYYLFWYKQPPSRQMILVIRQEAYKQQNATENRFSVNFQKAAKSFSLKISDSQLGDTAMYFCAFMIPDSNYQLIWGAGTKLIIKP
Vbeta: ETGVTQTPRHLVMGMTNKKSLKCEQHLGHNAMYWYKQSAKKPLELMFVYNFKEQTENNSVPSRFSPECPNSSHLFLHLHTLQPEDSALYLCASSQVGTSGRGGELFFGEGSRLTVL
binding result [5]: recognises

B12: TCR_A0131 (TCR, V domains shown)
Valpha: AQTVTQSQPEMSVQEAETVTLSCTYDTSENNYYLFWYKQPPSRQMILVIRQEAYKQQNATENRFSVNFQKAAKSFSLKISDSQLGDTAMYFCAFMLIDSGTYKYIFGTGTRLKVLA
Vbeta: EAQVTQNPRYLITVTGKKLTVTCSQNMNHEYMSWYRQDPGLGLRQIYYSMNVEVTDKGDVPEGYKVSRKEKRNFPLILESPSPNQTSLYFCASSLGQGTETQYFGPGTRLLVL
binding result [5]: recognises

B13: TCR_A0100 (TCR, V domains shown)
Valpha: KQEVTQIPAALSVPEGENLVLNCSFTDSAIYNLQWFRQDPGKGLTSLLLIQSSQREQTSGRLNASLDKSSGRSTLYIAASQPGDSATYLCAVGGNNNDMRFGAGTRLTVKP
Vbeta: AAGVIQSPRHLIKEKRETATLKCYPIPRHDTVYWYQQGPGQDPQFLISFYEKMQSDKGSIPDRFSAQQFSDYHSELNMSSLELGDSALYFCASSLINTEAFFGQGTRLTVV
binding result [6]: recognises

B14: TCR_A0358 (TCR, V domains shown)
Valpha: B12 Valpha with L96G, I97P
Vbeta: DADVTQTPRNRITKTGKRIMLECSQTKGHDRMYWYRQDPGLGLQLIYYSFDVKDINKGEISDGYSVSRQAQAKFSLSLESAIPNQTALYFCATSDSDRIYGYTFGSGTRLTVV
binding result [7]: recognises
